assay: yeast display, Sf9 membrane polyspecificity reagent, FACS + sequencing; frameworks hold sequencing errors
Summary of the method: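 Galactose induction of a Saccharomyces cerevisiae BJ5465 synthetic nanobody display library ran 36–48 hours. The cells were then stained for 1 hour at 4 °C with 10% biotinylated, detergent-solubilized Sf9 membrane reagent, pulled down on streptavidin microbeads and FACS-sorted into low and high (top ~1%) gates on expression and reagent-binding fluorescence. Labels for polyreactivity follow the gate of origin.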

| Sequence | polyreactivity (PSR sort gate) |
| --- | --- |
| QVHLVESGGGLDQARGSHRLSCAASGYTIPTYAMGWYRHAPGKERELVAAINWSGSRTYYADSVKGRFTISRDNAKNTVYLQMNSVKPEDTAFYYCAAYAYRVGPIRRHDYWGQGTQVTVSS | high polyreactivity |
| QVHLVESGGGLFQAGGSLPLSCAASGYIFVRYAKGWYRQAPGKEREFVAAISSSGGSTRYADSVKARFTLSRDNAKNTVYLQMNSLKPEDTAVYYGAATRVARHGSPMYYWGQGTQVTVSS | high polyreactivity |
| QVHLVESGGGLFQAGGSLRLSCAASGRTFYYNAMGWYRQAPGKEREFVAAITWSGTRTYYADSVKGRFTISRDNAKNTVYLQMNSLKPEDTAVYYCNARAGSGSRFGYWGEGTQVTVSS | high polyreactivity |
| QVHLVESGGGLFQAGGSLRLSCAASGRTFYYYGMGWYRQAPGKERELVASITNGGNTNYADSVKGRFTISRDNAKNTVYLQMNSLKPEDTAVYYCANDVPYWRPVVRYDYWGQGTQVTVSS | low polyreactivity |
| QVHLVESGGGLLQAGGSLRLSCAASGYTFVNYAMGWYREAPRKEMELVAAISYRGGSTSYADSVKGRFTISRDNAKNTVYLQMKSLKPEDSAVYYCAVVGQNWQSLRYDYWGQGTQVTVSS | high polyreactivity |
| QVHLVESGGGLVHAGGSIRLSCAASGSIFGYYAMGWYRQAPGKEREFVAAITWNGGSTYYADSVKGRFTISRDNAKNTVYLEMISLKPEDTAVYYCARTSYARFRNGWTYDHWGQGTQVSVSS | low polyreactivity |
| QVHLVESGGGLVLAGGSLRLSCAASGRIFSFYAMGWYRQAPGKERELVAAISSGGNTYYADSLKGRFTISRDNAKNTVYLQMNSLKPEDTAVYYCATGYRNLSSRYGYWGQGTQVSVSS | high polyreactivity |
| QVHLVESGGGLVLAGGSLRLSCAASVRIYTRNVMGWYRQAPGKERELVAAISTSGGSTFYADSVKGRFTISRDNAKNTVYLQMNSLKPEDTAVYYCAKRRYGKLEYWGQGTQVTVSS | high polyreactivity |
| QVHLVESGGGLVPAGGSLRLSCAASGGIFIFYAMGWYRQAPGKERELVAAISNVSSTNYADSVKGRFTISRDNAKNTVYLQMNSLKPEDTAVYYCNAVGVPSEYYSWGQGTQVTVSS | low polyreactivity |
| QVHLVESGGGLVQAAGSLRLSCAASVSTIPPNAMGWDRQAPGKEREFVAAISSVGSSYYADSVKGRFTISRDNAKKTFYLQMNSLKPEDTAVYYCAKGSWYWVEPYDYWGLGTQVTVSS | high polyreactivity |
| QVHLVESGGGLVQAGCSLRLSCAASGSIFYRYAMGWYRQEPGKECELVAAIRTRGGTYYADSVKGRFTISRDNAKNTVYLQIKSLKPEDTAVYYCNAGYGTWYLWYEYWGQGTQVTVSS | high polyreactivity |
| QVHLVESGGGLVQAGGILRLSCPASGQTFWAYAMGWYRQAPGKERELVAAISWRGGSTYYADSVKGRFTISRDNAKNTVYLQMNSLKPEDTAVYYCAAQYLYYGGRRYDFWGQGTQVTVSS | high polyreactivity |
| QVHLVESGGGLVQAGGILRLSCSASGRIFSVNAMGWYRQSPGKERELVAAITTRGGTTYYADSVKGRFTISRDNAKNTVYLLMNSLKPEDTAVYYCAAESSWYVYWEWAHDYWGQGTQVTVSS | low polyreactivity |
| QVHLVESGGGLVQAGGRLRLSCAASGFTFAHYDMGWYRQAPGKERELVAAITWSGSSTFYADSLKGRFTISRDNAKNTVYLQMYCMKPEDNAVYYCNADYDVSYWFYQDVIYDYWGQGTQVTVSS | low polyreactivity |
| QVHLVESGGGLVQAGGRLRLSCAASGFTIGHYAMAWYRQAPGKERELVAAISSGDRTYYADSVKGRFTISRDNAKNTVYLQMNCLKPEDTAVYFCNGVYYSWAQSARFDYWGQGTQVTVSS | low polyreactivity |
| QVHLVESGGGLVQAGGRLRLSCAASGIIFRLYGMGWYRQAPGKEREFVATITWRGGRTNYADSVKGRFTIARDNAKNTVYLQMNSLKPEDTAVYYCAKVVRYARSNEYDSWGQGTQVTVSS | low polyreactivity |
| QVHLVESGGGLVQAGGRLRLSCDASGRTFKGYAMGWYRQAPGQERELGAAISFTGGSTYYADSVKGRFTISRDNAKNPVDLQMNSLKPEDTAVYYCNAVNYRGYGYWGQGTQVTVSS | high polyreactivity |
| QVHLVESGGGLVQAGGSLRISCAASGFIFEPYAMGWYRQAPGKERELVAAISSTGGSTYADSVKGRFTISRDNAKNTVYIQMNSLKPEDTEGYYCAAKVRISRYTYGYWGQGNQVTVSS | high polyreactivity |
| QVHLVESGGGLVQAGGSLRISCAASGSTFYYYTMGWYRQAPGKERELVAISWDGDSTYYADSVKGRFTISRDNAKNTVYLQMNSLKPEDTAVYYFNAEYTWSGTKIYTYKYDFWGPGTQVTVSS | low polyreactivity |
| QVHLVESGGGLVQAGGSLRITCAASGRIFWSYAMGWYRQAPGKEMELVAAITWSGGSTYYADSVKGRFTISRDNAKNTVYLQMIRLKPEDTAVYYCNAATGQPVGLDYWGQGTQVTVSS | low polyreactivity |
| QVHLVESGGGLVQAGGSLRLICAASGFTFAVYAMGWYRQAPGKERELVAAISRSSGRTYYADSVKGRFTISRDNAKNTVYLQMNSLKPEDTAVYYCNARRGSPAPYDYWGQGTQVTVSS | high polyreactivity |
| QVHLVESGGGLVQAGGSLRLICAASGSTFWSYAMGWYRQAPGKERELVAAITSGGRTYYADSVKGRFTISRDNAKNTVYLQMNRLKPEYTAVYNCNAVVRHTYRRFDYWGQGTQVTVSS | high polyreactivity |

| Sequence | polyreactivity (PSR sort gate) |
| --- | --- |
| QVHLVESGGGLVQAGGSLRLSCAASASTFLYYAMGWNRQPPGKERELVAVISWSGVSTYYADSVKGRFTSSRDNAKYTVYLQMNSLKPEDTAVYYCNTGNHYIRTYGYWGQGTQVTVSS | low polyreactivity |
| QVHLVESGGGLVQAGGSLRLSCAASASTFQSNAMGWYRQAPGKERELVATITQSGATTYYADSVKGRFTISRDYAKNTVYLQMNSLKPEDTAVYYCNVDTFQKRWFWLDLDGGYWGQGTQVTVSS | low polyreactivity |
| QVHLVESGGGLVQAGGSLRLSCAASGFIFHLNSMGWYRQAPGTERELVAAFSWNGGSTFYADSVKGRFTISRDNAKNTVYLQMNSLKPEDTAVYYCNADFRPAYTYDYWGQGTQVTVSS | low polyreactivity |
| QVHLVESGGGLVQAGGSLRLSCAASGFIFHYNAMGWYRQAPGKERELVAAITSGDSTDYADSVKGRFTISRDNAKNTVYLQMNSLIPEDTAVYYCAAYHREGRRDDYWGQGTQVTVSS | low polyreactivity |
| QVHLVESGGGLVQAGGSLRLSCAASGFIFSCYAMGWYRQAPGKERELVATITSGGSTVYADSVKGRFTISRDNAKNTVSLEMNSLKPEDTAVYYSNVDSTLYYLSRDYDYWGQATQVTVSS | high polyreactivity |
| QVHLVESGGGLVQAGGSLRLSCAASGFIFVRNARGWYRQAPGKERELVARISRSGGSTYYADSVKGRFTISRDNAKNTVYLQMNSLKQEDTAVYYCAAVLQAYPRLDYWGQGTQVTVSS | high polyreactivity |
| QVHLVESGGGLVQAGGSLRLSCAASGFIFYSNAMGWYRQAPGKERELVAAISSGGGSTRYADSVKGRFTISRDNAKNTVYLQMNSLKPQDTAVYYCAAREGYTKFRSTRYYYWGQGTQVTVSS | high polyreactivity |
| QVHLVESGGGLVQAGGSLRLSCAASGFIRNYAMGWYRQAPGKERELVAAITSSGGRTYYADSVKGRFTISRDNAKNRVYLQMNSLKPEDTAVYYCAAPSRITTGPHREYDYWGQGTLVTVSS | high polyreactivity |
| QVHLVESGGGLVQAGGSLRLSCAASGFTFGIYAMGWYRQAPGKERELVAAIRKGGGSTYYADSVKGRFTISRDNAKNTVYLQMNSLKPEDTAVYYCAADSYRDWHDYWGQGTQVTVSS | low polyreactivity |
| QVHLVESGGGLVQAGGSLRLSCAASGFTFPWYAMGWYRQAPGKERELVAAINTGGSTYYADSVKGRFSISRDNAKNTVYLQMNSLKPDDTEVYYCATLGRYRYLNTYYWGSHDYWGQGTQVTVSS | high polyreactivity |
| QVHLVESGGGLVQAGGSLRLSCAASGFTFRTYAMGWYRQAPGKERELVAAITRNGGTYYADSVKGRFTISRDNAKNTVNLQMNSLKPEDTAVYYCATDPAYWGDQPPEDDYWGQGTQVTVSS | low polyreactivity |
| QVHLVESGGGLVQAGGSLRLSCAASGFTFSFYAMGWYRQAPGKERELVAAIDRSGGSTYYADSVKGRFTISRDNAKNTVYLQMNSLKPEDTAFYYCAATVFYGYYYWGQGTQVTVSS | high polyreactivity |
| QVHLVESGGGLVQAGGSLRLSCAASGFTFSSNAMGWYRQAPGKERELVAAIRSGGTTKYADSVKGRFTISRDNAKNTLYLQMNSLKPEDTAVYYCAARIRDLAGYYYWGQGTQVTVSS | high polyreactivity |
| QVHLVESGGGLVQAGGSLRLSCAASGGIFSYYALGWYRQAPGKERELVAAISSGGTTYYADSVKGRFTISRDNAKNTVYLQMNSLKPEDTAVYYCALLVGHNYWGQGTQVTVSS | low polyreactivity |
| QVHLVESGGGLVQAGGSLRLSCAASGIIFGGNVMGWYRQAGGKERELVAAITWSGGTTYYADSVKGRFTISRDNAKNTVYLQMNSLKPEDTAVYYCAADRFYLDYVAGTYDYWGQGTQVTVSS | low polyreactivity |
| QVHLVESGGGLVQAGGSLRLSCAASGIIFSTYAMGWYRQAPGKERELVAAITSTGSTNYADSVKGRFTISRDNAKNTVYLQINRLKQEDTAVYYCAARYAGPSPTDTGHDYWGQGTQVTVSS | low polyreactivity |
| QVHLVESGGGLVQAGGSLRLSCAASGIIFYRYAMGWYRQAPGKESELVAAITRRTASTYYADSVKGRFTLSRDNAKNTVYLPLNSLKPEDSAVYYCSAYSPYSHIVDNFDYWGQGTQVTVSS | low polyreactivity |
| QVHLVESGGGLVQAGGSLRLSCAASGITLGYYVMGWYRQAPGKERELVAAISSSGGRTYYADSVKGRFTISRDNAKNTVYLQMNSLKPEDTAVYYCSADLGRGIYDYWGQGTQVTVSS | low polyreactivity |
| QVHLVESGGGLVQAGGSLRLSCAASGLIFGGYAMGWDRQAPGKERELVAAISSNSGSTYYADSVKGRFTISRDNAKNTVYLQMNSLKPEDTAVYYCIRYFYQGFDYWGQGTQVTVSS | high polyreactivity |
| QVHLVESGGGLVQAGGSLRLSCAASGLIFGRNAMGWYRQAPGKERELVAAISTRGGSTYYADSVKGRFTISRDNAKNTVYLQMNSLKPEDTAVYYCAARGSYGYDYWGQGPQVTVSS | high polyreactivity |
| QVHLVESGGGLVQAGGSLRLSCAASGLIFSFYPMGWYRQAPGKERELVAGINWRGGSTYYADSVKGRFTISRDNAKNTVYLQMNSLKPEETAVYYCAAPSYYYGYWGQGTQVTVLS | high polyreactivity |
